Data on 14 molecules can be found in US20230365662A1.

The chains are these.
B1: parental mouse (KB001) Fab FASEBA, VL variant A56M (Fab, V domains shown)
VH: EVQLKQSGPGLVAPSQSLSITCTVSGFSLSIYSVHWVRQPPGKGLEWLGMIWGGGSSDYNSALKSRLSISKDNSKSQVFLKMNSLQTDDTAMYYCARNGNFYAMDYWGQGTSVTVSS
VL: QIVLTQSPAIMSASLGERVTMTCTASSSVSSSFLHWYQQKPGSSPQLWIYSTSNLMSGVPARFSGSGSGTSYSLTISSMEAEDAATYYCHQYHHSPYIYTFGGGTKLEIK
B2: parental mouse (KB001) Fab FASEBA, VL variant H90L (Fab, V domains shown)
VH: EVQLKQSGPGLVAPSQSLSITCTVSGFSLSIYSVHWVRQPPGKGLEWLGMIWGGGSSDYNSALKSRLSISKDNSKSQVFLKMNSLQTDDTAMYYCARNGNFYAMDYWGQGTSVTVSS
VL: QIVLTQSPAIMSASLGERVTMTCTASSSVSSSFLHWYQQKPGSSPQLWIYSTSNLASGVPARFSGSGSGTSYSLTISSMEAEDAATYYCLQYHHSPYIYTFGGGTKLEIK
B3: parental mouse (KB001) Fab FASEBA, VL variant S57K (Fab, V domains shown)
VH: EVQLKQSGPGLVAPSQSLSITCTVSGFSLSIYSVHWVRQPPGKGLEWLGMIWGGGSSDYNSALKSRLSISKDNSKSQVFLKMNSLQTDDTAMYYCARNGNFYAMDYWGQGTSVTVSS
VL: QIVLTQSPAIMSASLGERVTMTCTASSSVSSSFLHWYQQKPGSSPQLWIYSTSNLAKGVPARFSGSGSGTSYSLTISSMEAEDAATYYCHQYHHSPYIYTFGGGTKLEIK
B4: parental mouse (KB001) Fab FASEBA, VL variant S57N (Fab, V domains shown)
VH: EVQLKQSGPGLVAPSQSLSITCTVSGFSLSIYSVHWVRQPPGKGLEWLGMIWGGGSSDYNSALKSRLSISKDNSKSQVFLKMNSLQTDDTAMYYCARNGNFYAMDYWGQGTSVTVSS
VL: QIVLTQSPAIMSASLGERVTMTCTASSSVSSSFLHWYQQKPGSSPQLWIYSTSNLANGVPARFSGSGSGTSYSLTISSMEAEDAATYYCHQYHHSPYIYTFGGGTKLEIK
B5: parental mouse (KB001) Fab FASEBA, VL variant S57E (Fab, V domains shown)
VH: EVQLKQSGPGLVAPSQSLSITCTVSGFSLSIYSVHWVRQPPGKGLEWLGMIWGGGSSDYNSALKSRLSISKDNSKSQVFLKMNSLQTDDTAMYYCARNGNFYAMDYWGQGTSVTVSS
VL: QIVLTQSPAIMSASLGERVTMTCTASSSVSSSFLHWYQQKPGSSPQLWIYSTSNLAEGVPARFSGSGSGTSYSLTISSMEAEDAATYYCHQYHHSPYIYTFGGGTKLEIK
B6: parental mouse (KB001) Fab FASEBA, VL variant S57Q (Fab, V domains shown)
VH: EVQLKQSGPGLVAPSQSLSITCTVSGFSLSIYSVHWVRQPPGKGLEWLGMIWGGGSSDYNSALKSRLSISKDNSKSQVFLKMNSLQTDDTAMYYCARNGNFYAMDYWGQGTSVTVSS
VL: QIVLTQSPAIMSASLGERVTMTCTASSSVSSSFLHWYQQKPGSSPQLWIYSTSNLAQGVPARFSGSGSGTSYSLTISSMEAEDAATYYCHQYHHSPYIYTFGGGTKLEIK
B7: parental mouse (KB001) Fab FASEBA, VL variant S57W (Fab, V domains shown)
VH: EVQLKQSGPGLVAPSQSLSITCTVSGFSLSIYSVHWVRQPPGKGLEWLGMIWGGGSSDYNSALKSRLSISKDNSKSQVFLKMNSLQTDDTAMYYCARNGNFYAMDYWGQGTSVTVSS
VL: QIVLTQSPAIMSASLGERVTMTCTASSSVSSSFLHWYQQKPGSSPQLWIYSTSNLAWGVPARFSGSGSGTSYSLTISSMEAEDAATYYCHQYHHSPYIYTFGGGTKLEIK
B8: parental mouse (KB001) Fab FASEBA, VL variant S57M (Fab, V domains shown)
VH: EVQLKQSGPGLVAPSQSLSITCTVSGFSLSIYSVHWVRQPPGKGLEWLGMIWGGGSSDYNSALKSRLSISKDNSKSQVFLKMNSLQTDDTAMYYCARNGNFYAMDYWGQGTSVTVSS
VL: QIVLTQSPAIMSASLGERVTMTCTASSSVSSSFLHWYQQKPGSSPQLWIYSTSNLAMGVPARFSGSGSGTSYSLTISSMEAEDAATYYCHQYHHSPYIYTFGGGTKLEIK
B9: parental mouse (KB001) Fab FASEBA, VL variant S57R (Fab, V domains shown)
VH: EVQLKQSGPGLVAPSQSLSITCTVSGFSLSIYSVHWVRQPPGKGLEWLGMIWGGGSSDYNSALKSRLSISKDNSKSQVFLKMNSLQTDDTAMYYCARNGNFYAMDYWGQGTSVTVSS
VL: QIVLTQSPAIMSASLGERVTMTCTASSSVSSSFLHWYQQKPGSSPQLWIYSTSNLARGVPARFSGSGSGTSYSLTISSMEAEDAATYYCHQYHHSPYIYTFGGGTKLEIK
B10: parental mouse (KB001) Fab FASEBA, VL variant S57A (Fab, V domains shown)
VH: EVQLKQSGPGLVAPSQSLSITCTVSGFSLSIYSVHWVRQPPGKGLEWLGMIWGGGSSDYNSALKSRLSISKDNSKSQVFLKMNSLQTDDTAMYYCARNGNFYAMDYWGQGTSVTVSS
VL: QIVLTQSPAIMSASLGERVTMTCTASSSVSSSFLHWYQQKPGSSPQLWIYSTSNLAAGVPARFSGSGSGTSYSLTISSMEAEDAATYYCHQYHHSPYIYTFGGGTKLEIK
B11: parental mouse (KB001) Fab FASEBA, VL variant S57I (Fab, V domains shown)
VH: EVQLKQSGPGLVAPSQSLSITCTVSGFSLSIYSVHWVRQPPGKGLEWLGMIWGGGSSDYNSALKSRLSISKDNSKSQVFLKMNSLQTDDTAMYYCARNGNFYAMDYWGQGTSVTVSS
VL: QIVLTQSPAIMSASLGERVTMTCTASSSVSSSFLHWYQQKPGSSPQLWIYSTSNLAIGVPARFSGSGSGTSYSLTISSMEAEDAATYYCHQYHHSPYIYTFGGGTKLEIK
B12: parental mouse (KB001) Fab FASEBA, VL variant S57L (Fab, V domains shown)
VH: EVQLKQSGPGLVAPSQSLSITCTVSGFSLSIYSVHWVRQPPGKGLEWLGMIWGGGSSDYNSALKSRLSISKDNSKSQVFLKMNSLQTDDTAMYYCARNGNFYAMDYWGQGTSVTVSS
VL: QIVLTQSPAIMSASLGERVTMTCTASSSVSSSFLHWYQQKPGSSPQLWIYSTSNLALGVPARFSGSGSGTSYSLTISSMEAEDAATYYCHQYHHSPYIYTFGGGTKLEIK
B13: parental mouse (KB001) Fab FASEBA, VL variant S57F (Fab, V domains shown)
VH: EVQLKQSGPGLVAPSQSLSITCTVSGFSLSIYSVHWVRQPPGKGLEWLGMIWGGGSSDYNSALKSRLSISKDNSKSQVFLKMNSLQTDDTAMYYCARNGNFYAMDYWGQGTSVTVSS
VL: QIVLTQSPAIMSASLGERVTMTCTASSSVSSSFLHWYQQKPGSSPQLWIYSTSNLAFGVPARFSGSGSGTSYSLTISSMEAEDAATYYCHQYHHSPYIYTFGGGTKLEIK
B14: parental mouse (KB001) Fab FASEBA, VL variant H90W (Fab, V domains shown)
VH: EVQLKQSGPGLVAPSQSLSITCTVSGFSLSIYSVHWVRQPPGKGLEWLGMIWGGGSSDYNSALKSRLSISKDNSKSQVFLKMNSLQTDDTAMYYCARNGNFYAMDYWGQGTSVTVSS
VL: QIVLTQSPAIMSASLGERVTMTCTASSSVSSSFLHWYQQKPGSSPQLWIYSTSNLASGVPARFSGSGSGTSYSLTISSMEAEDAATYYCWQYHHSPYIYTFGGGTKLEIK

Where “and” joins values, the source holds several entries; their conditions need not be identical. Identical values can stand only once.

This assay deals with HRgpA-6H (Porphyromonas gingivalis) (UniProt P28784). Put plainly: ELISA, Fab FASEBA supernatant on coated HRgpA-6H. (In general: An ELISA detects its analyte on a solid surface through an enzyme-linked reagent.)
UniProt P28784, sequence (P28784 228-991 limits assumed): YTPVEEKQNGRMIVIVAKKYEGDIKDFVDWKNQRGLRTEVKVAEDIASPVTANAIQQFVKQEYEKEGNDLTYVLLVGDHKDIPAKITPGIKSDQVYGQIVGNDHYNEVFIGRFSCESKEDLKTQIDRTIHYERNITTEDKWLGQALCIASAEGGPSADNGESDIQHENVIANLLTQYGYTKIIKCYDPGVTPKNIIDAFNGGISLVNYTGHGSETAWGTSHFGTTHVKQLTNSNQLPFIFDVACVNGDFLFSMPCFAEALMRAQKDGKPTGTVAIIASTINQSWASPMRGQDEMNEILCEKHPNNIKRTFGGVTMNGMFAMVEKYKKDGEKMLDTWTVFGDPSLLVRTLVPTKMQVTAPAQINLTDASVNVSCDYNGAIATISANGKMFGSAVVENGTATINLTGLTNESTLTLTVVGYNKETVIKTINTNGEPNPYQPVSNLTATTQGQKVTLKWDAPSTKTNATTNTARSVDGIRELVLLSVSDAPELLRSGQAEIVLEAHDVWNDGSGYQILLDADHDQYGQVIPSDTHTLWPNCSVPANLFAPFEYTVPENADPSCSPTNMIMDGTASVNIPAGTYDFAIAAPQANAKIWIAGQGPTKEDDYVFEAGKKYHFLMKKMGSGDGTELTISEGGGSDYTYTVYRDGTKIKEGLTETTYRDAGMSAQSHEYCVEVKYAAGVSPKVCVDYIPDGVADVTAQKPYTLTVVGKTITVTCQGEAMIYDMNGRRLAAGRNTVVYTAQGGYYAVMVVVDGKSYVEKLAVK
For B1, the OD450nm is 0.802 OD450nm and 0.701 OD450nm; the Ratio OD(Variant)/OD(WT) is 0.983 ratio to WT and 0.86 ratio to WT.

As for B2, the OD450nm was 0.785 OD450nm and 0.694 OD450nm; the Ratio OD(Variant)/OD(WT) was 0.911 ratio to WT and 0.806 ratio to WT.

As to B3, the OD450nm turned out to be 0.712 OD450nm and the Ratio OD(Variant)/OD(WT) is 0.873 ratio to WT.

In the case of B4, the OD450nm is 0.813 OD450nm and the Ratio OD(Variant)/OD(WT) was 0.997 ratio to WT.

As for B5, the OD450nm worked out at 0.751 OD450nm and the Ratio OD(Variant)/OD(WT) was 0.921 ratio to WT.

On to B6, for which the OD450nm amounted to 0.658 OD450nm and the Ratio OD(Variant)/OD(WT) was 0.807 ratio to WT.

On to B7, for which the OD450nm is 0.784 OD450nm and the Ratio OD(Variant)/OD(WT) was 0.961 ratio to WT.

For the molecule B8, the OD450nm came to 0.745 OD450nm and the Ratio OD(Variant)/OD(WT) is 0.914 ratio to WT.

Consider B9, for which the OD450nm came to 0.746 OD450nm and the Ratio OD(Variant)/OD(WT) was 0.915 ratio to WT.

B10: the OD450nm was found to be 0.806 OD450nm and the Ratio OD(Variant)/OD(WT) is 0.988 ratio to WT.

Consider B11, for which the OD450nm is 0.791 OD450nm and the Ratio OD(Variant)/OD(WT) was 0.97 ratio to WT.

Take B12: the OD450nm amounted to 0.781 OD450nm and the Ratio OD(Variant)/OD(WT) is 0.958 ratio to WT.

Regarding B13, the OD450nm is 0.785 OD450nm and 0.787 OD450nm and 0.797 OD450nm; the Ratio OD(Variant)/OD(WT) was 0.963 ratio to WT and 0.965 ratio to WT and 0.977 ratio to WT.

Regarding B14, the OD450nm was 0.763 OD450nm and the Ratio OD(Variant)/OD(WT) is 0.886 ratio to WT.
